According to US20030236190A1 (published 2003):
Non-standard residues stand in square brackets, D forms with d. No end group written: not given here. Tyr(3-I) = N[C@@H](Cc1ccc(O)c(I)c1)C(=O)O

B1: X2CA-2-B4-IGFR (peptide)
peptide: CCLLCRFQQNFYDWFVCQGISRLRPL
modifications: disulfide (positions not given here); also: disulfide among the four cysteines, pairing not given here
B2: S591 (peptide)
peptide: LEEEWAQIECEVWGRGCSGSLDESF[Tyr(3-I)]DWFERQLG
modifications: not fully specified (bridges); printed as LEEEWAQIECEVWGRGCSGSLDESF-IodoTyr-DWFERQLG; cysteine pairing not given here

The binders below were run against T1, Insulin receptor prepared according to Bass et al., 1996: soluble human insulin receptor-immunoglobulin heavy … (human, UniProt P06213 28-956) (assay: phage ELISA, vs IGF-1R).
T1 construct: extracellular domain; Eu3+-labelled in TR-FRET; also called IR; sIR-Fc; not shown: immunoglobulin heavy chain constant domains that replace the transmembrane and i

Row | Binder | IR/IGF-1R Comparison
1 | GAPVDQLHEDFYDWFVRQVSQAATG [E2CA-2-B2-IGFR] | 0.3 ratio
2 | TLDGGSFEEQFYDWFVRQLSYRTNPD [H2CA-4-G11-IGFR] | 0.3 ratio
3 | PPLASDLDVQFYGWFVQQVSPPGRGG [H2CA-2-B3-IGFR] | 0.3 ratio
4 | VNQSGSIHENFYDWFERQVSHQRGVR [H2CA-4-F1O-IGFR] | 0.2 ratio
5 | QSPVGSSHEDFYDWFFRQVAQSGAHQ [N2CA-3-D6-IGFR] | 0.3 ratio
6 | GFREGNFYEWFQAQVT [E4Da-4-H2-IR] | 0.2 ratio
7 | AVRATRFDEAFYDWFVRQISDGQGNK [H2CA-4-86-GFR] | 0.2 ratio
8 | RCGRELYHSTFYDWFDRQVAGRTCPS [H2CA-1-A7-IGFR] | 0.3 ratio
9 | FYVQQWGHENFYDWFDRQVSQSGGAG [H2CA-4-F1-IGFR] | 0.3 ratio
10 | GFREGSFYDWFQAQVT [E4Dα-2-D11-IR] | 0.3 ratio
11 | B1 | 0.3 ratio
12 | QAVQPGFHEEFYDWFVRQVSTGVGGG [H2CA-4-H4-IGFR] | 0.2 ratio
13 | NYRRQVFNGNFYDWFDRQVFSLVTPG [142CA-3-D8-IGFR] | 0.3 ratio
14 | LRRQAPVEENFYDWFVRQVSGDRVGG [H2CA-3-D7-IGFR] | 0.3 ratio
15 | APDPSDFQEIFYDWFVRQVSRMPGGG [H2CA-1-A3-IGFR] | 0.2 ratio
16 | SSIGGGFHENFYDWFSRQLSQSPPLK [N2CA-4-F7-IGFR] | 0.2 ratio
17 | RAGSSDFHEDFYEWFVRQVSLSLKGK [H2CA-2-B9-IGFR] | 0.2 ratio
18 | SSCDGAGHESFYEWFVRQVSGCRSV (not fully specified (bridges); cysteine pairing not given here) [H2CA-3-C8-IGFR] | 0.2 ratio

What follows are binders tested against human insulin receptor (HIR) (human, UniProt P06213 28-1382, limits assumed) (assay: 125I-insulin competition, solubilised HIR).

Row | Binder | Kd
19 | SLEEEWAQIQAEVYGNPNSESFYDWFERQL [S602] | 0.031 nM
20 | SLEEEWAQIQHELWPVEKGESFYDWFERQL [S605] | 0.094 nM
21 | SLEEEWAQIQHELYGPAESESFYD[dW]FERQL [S596] | 0.045 nM
22 | Ac-SLEEEWAQIQEDLYGANHNESFYDWFERQL [S603] | 0.015 nM
23 | LEEEWAQIECEV[Tyr(3-I)]GRGCSGSLDESFYDWFERQLG (cysteine pairing not given here) [S590] | 0.058 nM
24 | B2 | 0.13 nM
25 | LEEEWAQVECEV[Tyr(3-I)]GRGCSGSLDESFYDWFERQLG (cysteine pairing not given here) [S588] | 0.18 nM
26 | SLEEEWAQIECEVYGRGCPSESFYDWFERQL (not fully specified; N-terminal acetyl) [S597] | 0.0085 nM
27 | SLEEEWAQIQEDLYGANHNESFYDWFERQL [S601] | 0.18 nM
28 | LEEEWAQIQREVWHS[dP]ASESF[dY]D[dW]FERQL [S595] | 0.62 nM
29 | SIEEEWAQIKCDVWGRGCPSY [S593] | 0.022 nM
30 | SLEEEWAQIECEVWGRCWHHSFYDWFERQL [S594] | 0.071 nM
31 | SLEEEWAQIECEVWGRGCPSY [S592] | 1.7 nM

What follows are binders tested against T1, Insulin receptor prepared according to … (assay: phage ELISA vs milk).

Row | Binder | Ratio over Background
32 | GAPVDQLHEDFYDWFVRQVSQAATG [E2CA-2-B2-IGFR] | 1 fold
33 | TLDGGSFEEQFYDWFVRQLSYRTNPD [H2CA-4-G11-IGFR] | 2.5 fold
34 | PPLASDLDVQFYGWFVQQVSPPGRGG [H2CA-2-B3-IGFR] | 1 fold
35 | VNQSGSIHENFYDWFERQVSHQRGVR [H2CA-4-F1O-IGFR] | 1 fold
36 | QSPVGSSHEDFYDWFFRQVAQSGAHQ [N2CA-3-D6-IGFR] | 2.2 fold
37 | GFREGNFYEWFQAQVT [E4Da-4-H2-IR] | 8.2 fold
38 | AVRATRFDEAFYDWFVRQISDGQGNK [H2CA-4-86-GFR] | 1.1 fold
39 | RCGRELYHSTFYDWFDRQVAGRTCPS [H2CA-1-A7-IGFR] | 0.6 fold
40 | FYVQQWGHENFYDWFDRQVSQSGGAG [H2CA-4-F1-IGFR] | 0.9 fold
41 | GFREGSFYDWFQAQVT [E4Dα-2-D11-IR] | 3.3 fold
42 | B1 | 1.1 fold
43 | QAVQPGFHEEFYDWFVRQVSTGVGGG [H2CA-4-H4-IGFR] | 1 fold
44 | NYRRQVFNGNFYDWFDRQVFSLVTPG [142CA-3-D8-IGFR] | 1.8 fold
45 | LRRQAPVEENFYDWFVRQVSGDRVGG [H2CA-3-D7-IGFR] | 0.8 fold
46 | APDPSDFQEIFYDWFVRQVSRMPGGG [H2CA-1-A3-IGFR] | 0.8 fold
47 | SSIGGGFHENFYDWFSRQLSQSPPLK [N2CA-4-F7-IGFR] | 0.8 fold
48 | RAGSSDFHEDFYEWFVRQVSLSLKGK [H2CA-2-B9-IGFR] | 1.7 fold
49 | SSCDGAGHESFYEWFVRQVSGCRSV (not fully specified (bridges); cysteine pairing not given here) [H2CA-3-C8-IGFR] | 1.2 fold

The binders below were run against T2, Soluble IGF-1R (R&D Systems, Cat. # 391-GR/CF); recombinant human IGF-1R (human, UniProt P08069 31-935) (assay: phage ELISA vs milk).
T2 construct: extracellular domain; Eu3+-labelled in the TR-FRET assays; also called sIGF-1R; rhIGF-1R

Row | Binder | Ratio over Background
50 | GAPVDQLHEDFYDWFVRQVSQAATG [E2CA-2-B2-IGFR] | 3.4 fold
51 | TLDGGSFEEQFYDWFVRQLSYRTNPD [H2CA-4-G11-IGFR] | 9.5 fold
52 | PPLASDLDVQFYGWFVQQVSPPGRGG [H2CA-2-B3-IGFR] | 3.8 fold
53 | VNQSGSIHENFYDWFERQVSHQRGVR [H2CA-4-F1O-IGFR] | 5.7 fold
54 | QSPVGSSHEDFYDWFFRQVAQSGAHQ [N2CA-3-D6-IGFR] | 9 fold
55 | GFREGNFYEWFQAQVT [E4Da-4-H2-IR] | 33.9 fold
56 | AVRATRFDEAFYDWFVRQISDGQGNK [H2CA-4-86-GFR] | 7.3 fold
57 | RCGRELYHSTFYDWFDRQVAGRTCPS [H2CA-1-A7-IGFR] | 2.2 fold
58 | FYVQQWGHENFYDWFDRQVSQSGGAG [H2CA-4-F1-IGFR] | 3.5 fold
59 | GFREGSFYDWFQAQVT [E4Dα-2-D11-IR] | 11.1 fold
60 | B1 | 4.1 fold
61 | QAVQPGFHEEFYDWFVRQVSTGVGGG [H2CA-4-H4-IGFR] | 4.1 fold
62 | NYRRQVFNGNFYDWFDRQVFSLVTPG [142CA-3-D8-IGFR] | 7.2 fold
63 | LRRQAPVEENFYDWFVRQVSGDRVGG [H2CA-3-D7-IGFR] | 3 fold
64 | APDPSDFQEIFYDWFVRQVSRMPGGG [H2CA-1-A3-IGFR] | 3.8 fold
65 | SSIGGGFHENFYDWFSRQLSQSPPLK [N2CA-4-F7-IGFR] | 3.2 fold
66 | RAGSSDFHEDFYEWFVRQVSLSLKGK [H2CA-2-B9-IGFR] | 7 fold
67 | SSCDGAGHESFYEWFVRQVSGCRSV (not fully specified (bridges); cysteine pairing not given here) [H2CA-3-C8-IGFR] | 5.6 fold

Each binder was assayed against T2, Soluble IGF-1R (R&D Systems, Cat. # …) (assay: phage ELISA, vs IR).

Row | Binder | IGF-1R/IR Comparison
68 | GAPVDQLHEDFYDWFVRQVSQAATG [E2CA-2-B2-IGFR] | 3.5 ratio
69 | TLDGGSFEEQFYDWFVRQLSYRTNPD [H2CA-4-G11-IGFR] | 3.9 ratio
70 | PPLASDLDVQFYGWFVQQVSPPGRGG [H2CA-2-B3-IGFR] | 3.6 ratio
71 | VNQSGSIHENFYDWFERQVSHQRGVR [H2CA-4-F1O-IGFR] | 5.9 ratio
72 | QSPVGSSHEDFYDWFFRQVAQSGAHQ [N2CA-3-D6-IGFR] | 4 ratio
73 | GFREGNFYEWFQAQVT [E4Da-4-H2-IR] | 4.1 ratio
74 | AVRATRFDEAFYDWFVRQISDGQGNK [H2CA-4-86-GFR] | 6.4 ratio
75 | RCGRELYHSTFYDWFDRQVAGRTCPS [H2CA-1-A7-IGFR] | 3.7 ratio
76 | FYVQQWGHENFYDWFDRQVSQSGGAG [H2CA-4-F1-IGFR] | 3.8 ratio
77 | GFREGSFYDWFQAQVT [E4Dα-2-D11-IR] | 3.4 ratio
78 | B1 | 3.6 ratio
79 | QAVQPGFHEEFYDWFVRQVSTGVGGG [H2CA-4-H4-IGFR] | 4.2 ratio
80 | NYRRQVFNGNFYDWFDRQVFSLVTPG [142CA-3-D8-IGFR] | 4 ratio
81 | LRRQAPVEENFYDWFVRQVSGDRVGG [H2CA-3-D7-IGFR] | 3.7 ratio
82 | APDPSDFQEIFYDWFVRQVSRMPGGG [H2CA-1-A3-IGFR] | 5.1 ratio
83 | SSIGGGFHENFYDWFSRQLSQSPPLK [N2CA-4-F7-IGFR] | 4.1 ratio
84 | RAGSSDFHEDFYEWFVRQVSLSLKGK [H2CA-2-B9-IGFR] | 4.2 ratio
85 | SSCDGAGHESFYEWFVRQVSGCRSV (not fully specified (bridges); cysteine pairing not given here) [H2CA-3-C8-IGFR] | 4.8 ratio
